The numbers were not newly measured in paper PMC4485156, which cites them from elsewhere.

The series deals with haptoglobin-hemoglobin complex (Homo sapiens) (UniProt P00738).
UniProt P00738, sequence (P00738 19-406, chain 1 of 3): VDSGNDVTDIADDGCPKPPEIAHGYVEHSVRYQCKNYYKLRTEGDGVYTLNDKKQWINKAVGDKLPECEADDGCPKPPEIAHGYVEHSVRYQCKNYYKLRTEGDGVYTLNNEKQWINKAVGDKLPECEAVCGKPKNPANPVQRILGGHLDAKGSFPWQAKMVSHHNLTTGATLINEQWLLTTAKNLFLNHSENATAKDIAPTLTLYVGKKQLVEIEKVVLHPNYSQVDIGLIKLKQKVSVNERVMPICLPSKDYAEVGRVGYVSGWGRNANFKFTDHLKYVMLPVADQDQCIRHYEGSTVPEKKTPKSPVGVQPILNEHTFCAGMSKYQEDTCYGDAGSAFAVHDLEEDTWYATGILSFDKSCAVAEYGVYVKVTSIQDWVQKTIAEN
UniProt P00738, sequence (P69905 2-142, chain 2 of 3, further chain): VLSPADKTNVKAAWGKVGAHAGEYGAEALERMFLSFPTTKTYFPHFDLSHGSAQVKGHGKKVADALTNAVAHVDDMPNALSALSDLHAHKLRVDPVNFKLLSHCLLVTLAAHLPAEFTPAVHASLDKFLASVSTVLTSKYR
UniProt P00738, sequence (P68871 2-147, chain 3 of 3, further chain): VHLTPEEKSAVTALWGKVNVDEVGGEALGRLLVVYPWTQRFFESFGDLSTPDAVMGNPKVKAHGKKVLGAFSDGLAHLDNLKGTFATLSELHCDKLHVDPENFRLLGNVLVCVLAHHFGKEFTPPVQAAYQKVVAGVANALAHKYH

As to CD163 (from UniProt Q86VB7), the Kd was 19 nM.

As usually defined, the Kd is the constant that tells how readily two partners part at equilibrium.
